# Target: T1, HLA-B*08:01 (human)
# T1 construct: MHC monomer first loaded with a UV-sensitive peptide that is cleaved by UV light and exchanged for the test peptide
# Test: UV peptide exchange ELISA
# Text: Candidate peptides for T cell based therapies according to the present invention were further tested for their MHC binding capacity (affinity). The individual peptide-MHC complexes were produced by UV-ligand exchange, where a UV-sensitive peptide is cleaved upon UV-irradiation and exchanged with the peptide of interest as analyzed. Only peptide candidates that can effectively bind and stabilize the peptide-receptive MHC molecules prevent dissociation of the MHC complexes. To determine the yield of the exchange reaction, an ELISA was performed based on the detection of the light chain (β2m) of stabilized MHC complexes. The assay was performed as generally described in Rodenko et al. (Rodenko et al., 2006).
# 96 well MAXISorp plates (NUNC) were coated over night with 2 ug/ml streptavidin in PBS at room temperature, washed 4× and blocked for 1 h at 37° C. in 2% BSA containing blocking buffer. Refolded HLA-A*02:01/MLA-001 monomers served as standards, covering the range of 15-500 ng/ml. Peptide-MHC monomers of the UV-exchange reaction were diluted 100-fold in blocking buffer. Samples were incubated for 1 h at 37° C., washed four times, incubated with 2 ug/ml HRP conjugated anti-β2m for 1 h at 37° C., washed again and detected with TMB solution that is stopped with […]. Absorption was measured at 450 nm. Candidate peptides that show a high exchange yield (preferably higher than 50%, most preferred higher than 75%) are generally preferred for a generation and production of antibodies or fragments thereof, and/or T cell receptors or fragments thereof, as they show sufficient avidity to the MHC molecules and prevent dissociation of the MHC complexes.
row,Binder,peptide exchange yield
1,APLKMLALV [APLKMLALV (SEQ ID NO: 105)],20 to 50%
2,AQRSEMVTL [AQRSEMVTL (SEQ ID NO: 120)],20 to 50%
3,EPFTRPVL [EPFTRPVL (SEQ ID NO: 13)],20 to 50%
4,VGPNGFKSL [VGPNGFKSL (SEQ ID NO: 117)],20 to 50%
5,DRHLTNRVL [DRHLTNRVL (SEQ ID NO: 151)],20 to 50%
6,TAAEARLSL [TAAEARLSL (SEQ ID NO: 126)],20 to 50%
7,RSYYHPTNL [RSYYHPTNL (SEQ ID NO: 108)],20 to 50%
8,IMKKIRESY [IMKKIRESY (SEQ ID NO: 102)],50 to 75%
9,TQKSVQVL [TQKSVQVL (SEQ ID NO: 149)],20 to 50%
10,DFYLRSSAF [DFYLRSSAF (SEQ ID NO: 12)],50 to 75%
11,HLHLLETSI [HLHLLETSI (SEQ ID NO: 106)],20 to 50%
12,MAFVKHLL [MAFVKHLL (SEQ ID NO: 118)],50 to 75%
13,FTQNPRVQL [FTQNPRVQL (SEQ ID NO: 116)],20 to 50%
14,IAVDKPITL [IAVDKPITL (SEQ ID NO: 140)],20 to 50%
15,HAMDGASHL [HAMDGASHL (SEQ ID NO: 147)],20 to 50%
16,HSWTRTSV [HSWTRTSV (SEQ ID NO: 124)],50 to 75%
17,MRILKRFLAC [MRILKRFLAC (SEQ ID NO: 115)],20 to 50%
18,MAPLKMLAL [MAPLKMLAL (SEQ ID NO: 11)],50 to 75%
19,ELILKRCL [ELILKRCL (SEQ ID NO: 14)],50 to 75%
20,DQRSRATL [DQRSRATL (SEQ ID NO: 134)],20 to 50%
21,YGRIGISLF [YGRIGISLF (SEQ ID NO: 139)],20 to 50%
22,YNLIYSMCL [YNLIYSMCL (SEQ ID NO: 142)],50 to 75%
23,HRILRLPAL [HRILRLPAL (SEQ ID NO: 129)],50 to 75%
24,IEQIRAVL [IEQIRAVL (SEQ ID NO: 144)],20 to 50%

row,Binder,peptide exchange yield
1,DIVPPFSAF [DIVPPFSAF (SEQ ID NO: 161)],20 to 50%
2,NRKPRTPF [NRKPRTPF (SEQ ID NO: 16)],20 to 50%
3,LLKKIEHA [LLKKIEHA (SEQ ID NO: 15)],20 to 50%
4,DVIIKGNGL [DVIIKGNGL (SEQ ID NO: 158)],20 to 50%
5,DVNPVSLQL [DVNPVSLQL (SEQ ID NO: 148)],20 to 50%
6,MGKFKQCF [MGKFKQCF (SEQ ID NO: 10)],50 to 75%
7,QPYRFPQA [QPYRFPQA (SEQ ID NO: 157)],20 to 50%
8,EYLETKRLAF [EYLETKRLAF (SEQ ID NO: 135)],10 to 20%
9,QATPRVRIL [QATPRVRIL (SEQ ID NO: 133)],20 to 50%
10,LPAPYQHQL [LPAPYQHQL (SEQ ID NO: 130)],20 to 50%
11,PVKPKFYL [PVKPKFYL (SEQ ID NO: 114)],20 to 50%
12,LPASFPAVL [LPASFPAVL (SEQ ID NO: 155)],20 to 50%
13,DADLREQAL [DADLREQAL (SEQ ID NO: 143)],20 to 50%
14,VQWKPPAL [VQWKPPAL (SEQ ID NO: 137)],20 to 50%
15,FQTAHFYL [FQTAHFYL (SEQ ID NO: 146)],50 to 75%
16,EPVIRTVSI [EPVIRTVSI (SEQ ID NO: 127)],50 to 75%
17,IPASHPVLTL [IPASHPVLTL (SEQ ID NO: 109)],20 to 50%
18,LPKGLKDWQA [LPKGLKDWQA (SEQ ID NO: 107)],20 to 50%
19,TQHLTVATL [TQHLTVATL (SEQ ID NO: 138)],50 to 75%
20,SLLPFTLSF [SLLPFTLSF (SEQ ID NO: 123)],20 to 50%
21,HAIPHYVTM [HAIPHYVTM (SEQ ID NO: 153)],20 to 50%
22,FQRVSSVSF [FQRVSSVSF (SEQ ID NO: 119)],50 to 75%
23,FAFGEPREL [FAFGEPREL (SEQ ID NO: 104)],20 to 50%
24,AQLKLVAL [AQLKLVAL (SEQ ID NO: 141)],20 to 50%

# Results, then the binder that gave them:
row,peptide exchange yield,Binder
1,20 to 50%,NALDPLSAL [NALDPLSAL (SEQ ID NO: 112)]
2,20 to 50%,MRSSYIREL [MRSSYIREL (SEQ ID NO: 150)]
3,20 to 50%,ESSAQPTAL [ESSAQPTAL (SEQ ID NO: 122)]
4,20 to 50%,MEKGLASL [MEKGLASL (SEQ ID NO: 113)]
5,50 to 75%,DAMTKHTL [DAMTKHTL (SEQ ID NO: 110)]
6,50 to 75%,IPIQAHQI [IPIQAHQI (SEQ ID NO: 132)]
7,20 to 50%,GAGLRITAPL [GAGLRITAPL (SEQ ID NO: 111)]
8,20 to 50%,DLRNKIIA [DLRNKIIA (SEQ ID NO: 159)]
9,50 to 75%,FPLVTPLL [FPLVTPLL (SEQ ID NO: 125)]
10,20 to 50%,ALKLKVAEL [ALKLKVAEL (SEQ ID NO: 1)]
11,20 to 50%,MSTKTTSI [MSTKTTSI (SEQ ID NO: 131)]
12,20 to 50%,YSQLSISL [YSQLSISL (SEQ ID NO: 121)]
13,20 to 50%,FNKLVTEL [FNKLVTEL (SEQ ID NO: 152)]
14,20 to 50%,MIYRKALRL [MIYRKALRL (SEQ ID NO: 145)]
15,20 to 50%,LPINNTHI [LPINNTHI (SEQ ID NO: 160)]
16,50 to 75%,IANLRVKNI [IANLRVKNI (SEQ ID NO: 103)]
17,20 to 50%,ILKEQSSSSF [ILKEQSSSSF (SEQ ID NO: 156)]
18,50 to 75%,KMFYRKDVM [KMFYRKDVM (SEQ ID NO: 136)]
19,50 to 75%,HFHNRHVF [HFHNRHVF (SEQ ID NO: 128)]
20,20 to 50%,VLKTLQEL [VLKTLQEL (SEQ ID NO: 154)]

# Source: US20250145684A1 (IMMATICS BIOTECHNOLOGIES, published 2025)
